This assay concerns the target recombinant avidin (hen) (UniProt P02701). As to the kind of experiment: SEC + other: electrophoresis; purified renatured rec-AV alone; conditions not given; details referred to Shin et al, 1997.

As for “recombinant avidin (from UniProt P02701 25-152) (natural protein)”, the stoichiometry N was 4.

These data come from paper PMC2062912.
